Read-outs that look alike come from different tables or passages of the source. Each block holds one substance with its values, some of them ahead of it.
What was measured:
[1] = target: CD16a (FcγRIIIa) on Jurkat NFAT reporter cells (UniProt P08637); experiment: cell-based or functional assay
[2] = target: Human F158 FcγRIIIa (Example 8) (human) (UniProt P08637); experiment: BLI, receptor on SAX sensor
[3] = target: Human FcγRI (Example 8) (human) (UniProt P12314); experiment: BLI, receptor on SAX sensor
[4] = target: Human H131 FcγRIIa (Example 8) (human) (UniProt P12318); experiment: BLI, receptor on SAX sensor
[5] = target: Human V158 FcγRIIIa (Example 8) (human) (UniProt P08637); experiment: BLI, receptor on SAX sensor
[6] = target: Human F158 FcγRIIIa (Example 8) (human) (UniProt P08637); experiment: BLI; ratio to KD of the unconjugated antibody
[7] = target: Human FcγRI (Example 8) (human) (UniProt P12314); experiment: BLI; ratio to KD of the unconjugated antibody
[8] = target: Human V158 FcγRIIIa (Example 8) (human) (UniProt P08637); experiment: BLI; ratio to KD of the unconjugated antibody
[9] = target: CD16a (FcγRIIIa) on Jurkat NFAT reporter cells (UniProt P08637)
[10] = target: CD16a (FcγRIIIa) on Jurkat NFAT reporter cells (UniProt P08637); remark: listed apart in the source

Chain of CD16a (FcγRIIIa) on Jurkat NFAT reporter cells (P08637 17-254 limits assumed): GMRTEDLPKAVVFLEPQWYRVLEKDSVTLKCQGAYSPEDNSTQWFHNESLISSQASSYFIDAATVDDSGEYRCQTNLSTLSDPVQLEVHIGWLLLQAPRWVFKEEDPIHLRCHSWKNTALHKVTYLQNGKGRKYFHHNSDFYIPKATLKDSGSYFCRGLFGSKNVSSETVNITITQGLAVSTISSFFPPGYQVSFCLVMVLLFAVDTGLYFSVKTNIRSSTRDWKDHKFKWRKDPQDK

CD16a NFAT EC50 [1]: 0.7 ng/mL
Kd [2]: 95 nM
koff [2]: 0.049 s⁻¹
kon [2]: 520000 M⁻¹ s⁻¹
Kd [3]: 0.12 nM
koff [3]: 6.8e-05 s⁻¹
kon [3]: 590000 M⁻¹ s⁻¹
Kd [4]: 2100 nM
koff [4]: 0.38 s⁻¹
kon [4]: 190000 M⁻¹ s⁻¹
Kd [5]: 37 nM
koff [5]: 0.028 s⁻¹
kon [5]: 750000 M⁻¹ s⁻¹
Substance: Anti-HER2 S239D A330L I332E (antibody)

CD16a NFAT EC50 [1]: 83.5 ng/mL
Kd [2]: 3800 nM
koff [2]: 0.077 s⁻¹
kon [2]: 20000 M⁻¹ s⁻¹
Kd [3]: 1.2 nM
koff [3]: 0.00011 s⁻¹
kon [3]: 95000 M⁻¹ s⁻¹
Kd [5]: 2900 nM
koff [5]: 0.085 s⁻¹
kon [5]: 29000 M⁻¹ s⁻¹
KD Fold change [6]: 40 fold
KD Fold change [7]: 10 fold
KD Fold change [8]: 78.4 fold
Substance: Anti-HER2 S239D A330L I332E-mcPEG12(10) (antibody)

CD16a NFAT EC50 [1]: 1.5 ng/mL
Kd [3]: 0.1 nM
Substance: Anti-HER2 S239D I332E (antibody)

Kd [3]: 1 nM
Substance: Anti-HER2 S239D I332E-mcPEG12(8) (antibody)

CD16a NFAT EC50 [1]: 71.2 ng/mL
Substance: Anti-HER2 S239D I332E-mcPEG12(10) (antibody)

CD16a NFAT EC50 [1]: > 2000 ng/mL
Kd [3]: 9 nM
Substance: Anti-HER2-mcPEG12(8) (antibody)

EC50 (read off the curve), FcγRIIIa NFAT reporter assay [9]: 0.7 ng/mL
Substance: obinituzumab-AF (antibody)

EC50 (read off the curve), FcγRIIIa NFAT reporter assay [9]: 7 ng/mL
Substance: obinituzumab-WT (antibody)

EC50 (read off the curve), FcγRIIIa NFAT reporter assay [10]: 1 ng/mL
Substance: rituximab-AF (antibody)

EC50 (read off the curve), FcγRIIIa NFAT reporter assay [10]: 8 ng/mL
Substance: rituximab-WT (antibody)

Source: US20240173421A1
